The target in assay [1] is integrin αIIbβ3 (human (endogenous in platelets)) (UniProt P08514). The assay is described as follows: flow cytometry on cells; FITC-triflavin (2 µg/ml) added to resting washed human platelets treated with 0.3 µM TQ-6.
For assay [2] the target is unchanged. The assay is described as follows: flow cytometry on cells; FITC-triflavin (2 µg/ml) added to resting washed human platelets (3.6 × 10^8 cells/ml) in Tyrode's solution, 3 min; no additive (positive control).
Assay [3] has the same target. As to the kind of experiment: flow cytometry on cells; FITC-triflavin (2 µg/ml) added to resting washed human platelets treated with 0.5 µM TQ-6.

Sequence of UniProt P08514 (P08514 32-1039, chain 1 of 2): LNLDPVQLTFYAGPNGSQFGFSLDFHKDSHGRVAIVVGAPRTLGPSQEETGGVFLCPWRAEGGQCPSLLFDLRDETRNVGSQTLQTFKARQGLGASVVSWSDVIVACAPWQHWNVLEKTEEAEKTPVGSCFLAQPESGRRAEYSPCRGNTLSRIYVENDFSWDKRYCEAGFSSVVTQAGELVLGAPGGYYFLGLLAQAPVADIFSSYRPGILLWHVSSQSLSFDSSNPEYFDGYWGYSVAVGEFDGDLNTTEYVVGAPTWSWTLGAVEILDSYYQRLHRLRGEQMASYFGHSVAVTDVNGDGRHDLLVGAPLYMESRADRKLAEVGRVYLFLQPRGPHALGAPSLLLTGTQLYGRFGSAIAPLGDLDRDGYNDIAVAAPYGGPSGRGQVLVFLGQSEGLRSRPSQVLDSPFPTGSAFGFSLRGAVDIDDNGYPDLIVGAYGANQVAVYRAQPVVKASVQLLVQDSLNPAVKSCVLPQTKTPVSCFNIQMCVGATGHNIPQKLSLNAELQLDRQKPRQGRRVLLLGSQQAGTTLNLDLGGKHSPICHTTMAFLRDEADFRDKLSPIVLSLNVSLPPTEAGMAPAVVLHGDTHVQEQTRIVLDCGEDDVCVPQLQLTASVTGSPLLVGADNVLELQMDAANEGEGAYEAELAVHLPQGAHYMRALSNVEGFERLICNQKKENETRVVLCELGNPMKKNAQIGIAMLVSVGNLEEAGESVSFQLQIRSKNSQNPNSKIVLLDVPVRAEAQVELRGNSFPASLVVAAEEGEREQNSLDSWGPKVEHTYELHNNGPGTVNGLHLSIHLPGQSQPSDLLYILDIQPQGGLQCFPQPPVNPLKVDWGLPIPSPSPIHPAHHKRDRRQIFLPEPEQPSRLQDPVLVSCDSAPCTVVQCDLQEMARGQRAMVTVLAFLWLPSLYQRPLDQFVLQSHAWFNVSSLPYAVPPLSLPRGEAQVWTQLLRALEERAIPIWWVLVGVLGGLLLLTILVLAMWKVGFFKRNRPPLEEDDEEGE
Sequence of UniProt P08514 (P05106 27-788, chain 2 of 2, further chain): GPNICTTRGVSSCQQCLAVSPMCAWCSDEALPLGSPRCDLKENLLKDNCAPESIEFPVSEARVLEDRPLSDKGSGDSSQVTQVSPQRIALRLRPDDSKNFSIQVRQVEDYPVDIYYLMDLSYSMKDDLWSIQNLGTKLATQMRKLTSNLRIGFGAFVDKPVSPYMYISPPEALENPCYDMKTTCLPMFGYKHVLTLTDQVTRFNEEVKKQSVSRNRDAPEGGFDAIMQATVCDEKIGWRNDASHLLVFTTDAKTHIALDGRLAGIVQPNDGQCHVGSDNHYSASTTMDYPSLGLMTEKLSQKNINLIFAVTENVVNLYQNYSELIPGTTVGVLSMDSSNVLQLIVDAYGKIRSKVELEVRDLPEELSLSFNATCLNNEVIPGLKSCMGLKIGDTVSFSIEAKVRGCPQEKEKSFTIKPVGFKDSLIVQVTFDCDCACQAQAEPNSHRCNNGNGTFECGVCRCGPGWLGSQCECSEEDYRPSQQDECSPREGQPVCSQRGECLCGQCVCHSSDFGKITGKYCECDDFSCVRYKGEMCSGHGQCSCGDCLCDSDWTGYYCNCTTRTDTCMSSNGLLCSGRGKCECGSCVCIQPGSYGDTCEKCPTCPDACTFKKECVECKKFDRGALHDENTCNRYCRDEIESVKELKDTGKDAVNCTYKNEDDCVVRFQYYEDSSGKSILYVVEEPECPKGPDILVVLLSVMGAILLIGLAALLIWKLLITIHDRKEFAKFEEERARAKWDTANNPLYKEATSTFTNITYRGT

For the substance triflavin (natural protein), the values for the relative fluorescence intensity in assay [1], in assay [2] and in assay [3] were 1260, 1150 and 1220, respectively.

Source of the values: paper PMC5573325.
